According to paper PMC11903955:

Target: T1, CDK8 (Arabidopsis thaliana, UniProt Q84TI6 1-470)
T1 sequence: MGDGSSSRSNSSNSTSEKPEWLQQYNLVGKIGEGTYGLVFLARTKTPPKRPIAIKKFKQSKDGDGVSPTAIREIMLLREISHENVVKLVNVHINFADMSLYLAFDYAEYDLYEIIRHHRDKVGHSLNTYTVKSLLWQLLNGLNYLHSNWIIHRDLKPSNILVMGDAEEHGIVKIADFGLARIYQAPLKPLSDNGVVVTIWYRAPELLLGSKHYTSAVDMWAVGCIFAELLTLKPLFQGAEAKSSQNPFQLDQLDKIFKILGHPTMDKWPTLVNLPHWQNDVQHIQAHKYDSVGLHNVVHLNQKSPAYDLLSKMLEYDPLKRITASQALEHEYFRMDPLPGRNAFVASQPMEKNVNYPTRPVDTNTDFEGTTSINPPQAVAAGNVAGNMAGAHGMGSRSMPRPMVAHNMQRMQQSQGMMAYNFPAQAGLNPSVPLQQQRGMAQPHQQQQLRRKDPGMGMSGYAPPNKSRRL
Assay: EMSA

B1: AT-rich probe (dsDNA)
DNA 1: TAACACATATTTTGATAAATTTATTACTAAAACTATTTT
DNA 2: AAAATAGTTTTAGTAATAAATTTATCAAAATATGTGTTA
binding result: no binding
